The results in this text go back to patent US20140051120A1 (Genentech, published 2014).

Experiment [1] deals with T1, human EGFL7 (EGFL7-CB-His) (human, UniProt Q9UHF1 23-273, limits assumed).
T1 sequence: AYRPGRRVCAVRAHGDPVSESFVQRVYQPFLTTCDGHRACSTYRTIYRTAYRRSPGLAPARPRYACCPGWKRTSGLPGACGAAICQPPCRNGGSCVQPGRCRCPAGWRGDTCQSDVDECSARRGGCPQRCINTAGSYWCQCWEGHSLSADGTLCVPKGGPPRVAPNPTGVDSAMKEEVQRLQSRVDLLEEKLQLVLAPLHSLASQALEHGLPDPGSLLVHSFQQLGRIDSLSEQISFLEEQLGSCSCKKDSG
The experiment is described as follows: cell-based or functional assay.

For experiment [2], the target named is T2, mouse EGFL7 (mEGFL7-CB-His) (mouse, UniProt Q9QXT5 22-275).
T2 sequence: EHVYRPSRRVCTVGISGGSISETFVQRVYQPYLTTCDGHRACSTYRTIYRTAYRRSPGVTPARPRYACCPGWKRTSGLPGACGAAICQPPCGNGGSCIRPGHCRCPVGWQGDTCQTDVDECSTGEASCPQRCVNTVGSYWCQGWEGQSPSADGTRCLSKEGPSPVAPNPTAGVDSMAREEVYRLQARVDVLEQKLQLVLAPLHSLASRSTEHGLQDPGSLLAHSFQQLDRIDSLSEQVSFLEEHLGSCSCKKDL
The experiment is described as follows: SPR (Biacore), IgG over immobilized mEGFL7-CB at 37 C.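 Note: IgG injected as twofold series from 0.5 to 1000 nM, 3 min association and 3.5 min dissociation, reference flow cell subtracted, kinetics fitted to 1:1 Langmuir model.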

The target of experiment [3] is T3, p5 peptide of EGFL7 (human).
T3 construct: also called Peptide P5
T3 peptide: RACSTYRTIYRTA
The experiment is described as follows: SPR (Biacore), IgG over immobilized P5 peptide at 37 C, n = 3. For orientation: SPR reads the build-up and loss of mass on a sensor chip optically.

Experiment [4] concerns the target T2, mouse EGFL7 (mEGFL7-CB-His). The experiment is described as follows: SPR (Biacore), IgG over immobilized mEGFL7-CB at 37 C, n = 2.
Experiment [5] addresses T3, p5 peptide of EGFL7. The experiment is described as follows: SPR (Biacore), IgG over immobilized P5 peptide at 37 C, n = 2.
Experiment [6] deals with T4, truncated human EGFL7 (residues 1-182) (human, UniProt Q9UHF1 24-182).
T4 construct: Expressed in CHO cells; The range as printed starts at Met 1; also called truncated EGFL7; truncated huEGFL7
T4 chain: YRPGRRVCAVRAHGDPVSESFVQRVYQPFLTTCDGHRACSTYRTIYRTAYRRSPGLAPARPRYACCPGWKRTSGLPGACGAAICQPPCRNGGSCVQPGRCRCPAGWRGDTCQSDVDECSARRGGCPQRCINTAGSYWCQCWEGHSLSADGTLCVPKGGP
The experiment is described as follows: phage ELISA on truncated huEGFL7 immobilized on a microtiter plate. Background: An ELISA detects its analyte on a solid surface through an enzyme-linked reagent.

The target in experiment [7] is T2, mouse EGFL7 (mEGFL7-CB-His). The experiment is described as follows: cell-based or functional assay.
Experiment [8] concerns the target T3, p5 peptide of EGFL7. The experiment is described as follows: SPR (Biacore), IgG over immobilized P5 peptide at 37 C.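 Note: IgG variants injected at 0.5–1000 nM (2-fold series), 3 min association and 3.5 min dissociation, reference flow cell subtracted, kinetics fitted with a 1:1 Langmuir model.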
In experiment [9] the target is T1, human EGFL7 (EGFL7-CB-His). The experiment is described as follows: cell-based or functional assay. The source holds these as a separate data set.
Experiment [10] has as its target T2, mouse EGFL7 (mEGFL7-CB-His). The experiment is described as follows: cell-based or functional assay. This is another data set of the same source.
In experiment [11] the target is T5, p2S (p2 peptide biotinylated through its free cysteine) (human, also: biotinylated (maleimide PEO2-biotin) on one of the two Cys, which one not given here).
T5 construct: The peptide has two cysteines; also called b-p2S
T5 peptide: RPRYACCPGWKRT
The experiment is described as follows: SPR (Biacore), binding to p2S, KD relative to ch4F11.

Experiment [12] concerns the target EGFL7 coated on plates in the cell adhesion assay (human or mouse, not told apart at this place). The experiment is described as follows: cell-based or functional assay.
Experiment [13] has as its target T5, p2S (p2 peptide biotinylated through …). The experiment is described as follows: SPR (BIAcore-2000), IgG injected over immobilized p2S peptide.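 Note: CM5 chip with immobilized peptide, IgG at 0.5–1000 nM in PBST, 3 min association and 3.5 min dissociation, reference-cell subtracted, rates fitted by 1:1 Langmuir model.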
For experiment [14], the target named is T4, truncated human EGFL7 (residues 1-182). The experiment is described as follows: phage ELISA on truncated huEGFL7 immobilized on a microtiter plate.

Residue numbers refer to the chain shown, from its start. “And” between values parts separate entries of the source, which are not always exact repeats. Equal entries are not always repeated. Where two headings read alike, the source gives them in different places. Where no end group is shown, it is not given here.

B1: 18F7.v6 IgG (antibody, V domains shown)
VH: EVQLVESGGGLVQPGGSLRLSCAASGYTFIDYYMNWVRQAPGKGLEWVGDINLDNGGTHYNQKFKGRFTISRDKSKNTAYLQMNSLRAEDTAVYYCAREGVYHDYDDYAMDYWGQGTLVTVSS
VL: DIQMTQSPSSLSASVGDRVTITCRTSQSLVHINGITYLHWYQQKPGKAPKLLIYRVSNRFSGVPSRFSGSGSGTDFTLTISSLQPEDFATYYCGQSTHVPLTFGQGTKVEIKR
notes: IgG; also called hu18F7.v6
Broadly, the Kd is the free concentration of one partner at which half of the binding sites on the other are occupied at equilibrium, for simple one-to-one binding. A high value points to a looser complex. For orientation: koff means a measure of how fast the partners let go of each other. A high value points to a short-lived complex. Broadly, the kon is a measure of how fast the partners come together. A high value points to faster complex formation. Regarding B1, the “IC50, HUVEC adhesion [left panel]” value in experiment [1] is 5.62 nM. In experiment [2], the Kd was determined as 0.408 nM, the koff is 2.04e-05 s⁻¹ and the kon is 50000 M⁻¹ s⁻¹. For the same molecule, in [3], the Kd amounted to 3.21 nM, the koff came to 0.000389 s⁻¹ and the kon was determined as 121000 M⁻¹ s⁻¹.

B2: 18F7.v6C IgG (antibody, V domains shown)
VH: B1 VH with G56S
VL: DIQMTQSPSSLSASVGDRVTITCRTSQSLVHINGITYLHWYQQKPGKAPKLLIYRVSNRFSGVPSRFSGSGSGTDFTLTISSLQPEDFATYYCGQSTHVPLTFGQGTKVEIK
notes: IgG; Variant of 18F7.v6
B2: in experiment [4], binding was characterised by a dissociation constant (Kd) of 2.4 nM, the koff worked out at 8.1e-05 s⁻¹ and the kon was 36000 M⁻¹ s⁻¹. In experiment [5], this molecule came in with a Kd of 4.13 nM, a dissociation rate constant (koff) of 0.000502 s⁻¹ and a kon of 124000 M⁻¹ s⁻¹.

B3: phage displaying 18F7-graft Fab (Fab, V domains shown)
VH: B1 VH with K74N, A79L
VL: B1 VL with G94S
notes: Monovalent Fab-g3 display on M13 phage; heavy chain VH-CH1 fused to P3; also called 18F7-graft phage
For B3, the binding result in experiment [6] was “binds”.

B4: 18F7.v6B IgG (antibody, V domains shown)
VH: B1 VH with N55S
VL: B2 VL
notes: IgG; Variant of 18F7.v6
For the molecule B4, in experiment [4], the Kd was found to be 2.68 nM, the koff is 0.000174 s⁻¹ and the kon was determined as 79000 M⁻¹ s⁻¹. For the same molecule, in [5], the affinity, expressed as Kd, was 3.22 nM; the koff turned out to be 0.000638 s⁻¹; the kon was determined as 196000 M⁻¹ s⁻¹.

B5: 18F7.v6K IgG (antibody, V domains shown)
VH: B1 VH with G56S
VL: B1 VL with G34A
notes: IgG; also called hu18F7.v6k; h18F7.v6k
On to B5, for which the “IC50, HUVEC adhesion [right panel]” value in [7] is 6.37 µg/ml and 42 nM. Also, in experiment [2], the Kd came out at 1.6 nM, the koff came to 4.54e-05 s⁻¹ and the kon turned out to be 28000 M⁻¹ s⁻¹. In addition, in [8], the affinity, expressed as Kd, was 5.2 nM; the koff worked out at 0.000662 s⁻¹; the kon came out at 127000 M⁻¹ s⁻¹.

B6: 18F7.v6A IgG (antibody, V domains shown)
VH: B1 VH
VL: B2 VL with N33S
notes: IgG; Variant of 18F7.v6
In experiment [4], B6 displayed a Kd of 7.29 nM, a koff of 0.000404 s⁻¹ and a kon of 55000 M⁻¹ s⁻¹. In experiment [5], this molecule had a Kd of 3.74 nM, a koff of 0.00137 s⁻¹ and a kon of 373000 M⁻¹ s⁻¹.

B7: 4F11.v17 IgG (antibody, V domains shown)
VH: EVQLVESGGGLVQPGGSLRLSCAASGHTFTTYGMSWVRQAPGKGLEWVGWINTHSGVPTYADDFKGRFTISLDNSKNTAYLQMNSLRAEDTAVYYCARLGSYAVDYWGQGTLVTVSS
VL: DIQMTQSPSSLSASVGDRVTITCKASQSVDYSGDSYMSWYQQKPGKAPKLLIYGASYRESGVPSRFSGSGSGTDFTLTISSLQPEDFATYYCQQNNEEPYTFGQGTKVEIKR
notes: IgG; Library 1 framework; also called hu4F11.v17
Take B7: the “Cell Adhesion Assay (human EGFL7) Variant/ch4F11 (fold)” value in experiment [9] is 0.86 fold. Further, in experiment [10], the “IC50 (read off the curve), HUVEC adhesion” value is around 10 µg/mL. In addition, the “Fold change in KD variant/(chimera)” value in [11] turned out to be 0.93 fold.

B8: 4F11.v6 IgG (antibody, V domains shown)
VH: B7 VH with L72R, A79V, Y102S
VL: DIQMTQSPSSLSASVGDRVTITCKASQSVDYDGDSYMSWYQQKPGKAPKLLIYGASYLESGVPSRFSGSGSGTDFTLTISSLQPEDFATYYCQQNNEDPYTFGQGTKVEIK
notes: IgG; Kabat numbering
As to B8, the “Cell Adhesion Assay Variant/ch4F11 (fold)” value in experiment [12] amounted to 4.01 fold. In experiment [13], this molecule came in with a Kd of 19.5 nM, a koff of 0.0024 s⁻¹ and a kon of 123000 M⁻¹ s⁻¹.

B9: phage displaying 4F11.v1 Fab (Fab, V domains shown)
VH: B7 VH with L72R, A79L, Y102S
VL: B7 VL with S32D, Y57N, R58L, E98D
notes: Monovalent Fab-g3 display on M13 phage; heavy chain VH-CH1 fused to minor coat protein P3; also called 4F11.v1 phage; 4F11-graft Fab on phage
Take B9: the binding result in experiment [14] was “binds”.

B10: 4F11.v22 IgG (antibody, V domains shown)
VH: B7 VH with V2I, V48M, N77S, Y95F
VL: B7 VL
notes: IgG; Library 2 framework
Regarding B10, in [9], the “Cell Adhesion Assay (human EGFL7) Variant/ch4F11 (fold)” value stood at 0.81 fold. Further, the “Fold change in KD variant/(chimera)” value in experiment [11] came to 1 fold.

B11: 4F11.v10 IgG (antibody, V domains shown)
VH: B7 VH with L72R, A79V
VL: B8 VL
notes: IgG; Kabat numbering
On to B11, for which the “Cell Adhesion Assay Variant/ch4F11 (fold)” value in [12] came to 4.38 fold. In addition, in experiment [13], binding was characterised by a dissociation constant (Kd) of 27.4 nM, the koff came to 0.00197 s⁻¹ and the kon worked out at 72000 M⁻¹ s⁻¹.
